Positions count from the first letter of the chain named. Read-outs that look alike come from different tables or passages of the source.
Tests used:
[1] = target: T1, LGP2 RD wt (human, UniProt Q96C10 537-678); test: fluorescence anisotropy
T1 sequence: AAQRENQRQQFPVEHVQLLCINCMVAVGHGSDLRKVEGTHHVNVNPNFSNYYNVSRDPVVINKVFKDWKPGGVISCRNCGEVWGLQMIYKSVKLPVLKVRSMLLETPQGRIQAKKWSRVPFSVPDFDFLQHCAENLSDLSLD

[2] = target: T2, LGP2 RD H576Y (human, UniProt Q96C10 537-678, H576Y); test: fluorescence anisotropy
T2 sequence: T1 sequence with H40Y

[3] = target: T3, LGP2 RD W604A (human, UniProt Q96C10 537-678, W604A); test: fluorescence anisotropy
T3 sequence: T1 sequence with W68A

[4] = target: T4, LGP2 RD P606K (human, UniProt Q96C10 537-678, P606K); test: fluorescence anisotropy
T4 sequence: T1 sequence with P70K

[5] = target: T5, LGP2 RD K605E (human, UniProt Q96C10 537-678, K605E); test: fluorescence anisotropy
T5 sequence: T1 sequence with K69E

[6] = target: T6, LGP2 RD K634E (human, UniProt Q96C10 537-678, K634E); test: fluorescence anisotropy
T6 sequence: T1 sequence with K98E

[7] = target: T7, LGP2 RD L621A (human, UniProt Q96C10 537-678, L621A); test: fluorescence anisotropy
T7 sequence: T1 sequence with L85A

[8] = target: T8, LGP2 RD K626E (human, UniProt Q96C10 537-678, K626E); test: fluorescence anisotropy
T8 sequence: T1 sequence with K90E

[9] = target: T9, LGP2 RD N583D (human, UniProt Q96C10 537-678, N583D); test: fluorescence anisotropy
T9 sequence: T1 sequence with N47D

[10] = target: T1, LGP2 RD wt; test: competition
[11] = target: T1, LGP2 RD wt; test: competition; remark: listed apart in the source

B1: 25 bp dsRNA (dsRNA)
RNA 1: GCUUGUCGGGAGCGCCACCCUCUGC
RNA 2: GCAGAGGGUGGCGCUCCCGACAAGC
Kd [1]: 68 ± 6 nM | Kd [2]: 304 ± 10 nM | Kd [3]: 136 ± 6 nM | Kd [4]: 230 ± 10 nM | Kd [5]: 140 ± 16 nM | binding result [6]: no binding | Kd [7]: 165 ± 26 nM | Kd [8]: 51 ± 5 nM | Kd [9]: 38 ± 4 nM

B2: 5'PPP dsRNA 19 bp (dsRNA)
RNA 1: GCAUGCGACCUCUGUUUGA
RNA 2: UCAAACAGAGGUCGCAUGC
modifications: 5'-triphosphate on sense strand
binding result [10]: binds

B3: 5'OH dsRNA 19 bp (dsRNA)
RNA 1: GCAUGCGACCUCUGUUUGA
RNA 2: UCAAACAGAGGUCGCAUGC
binding result [11]: binds
